In test [1] the target is T1, hIL6R (human, UniProt P08887 20-357).
T1 construct: Purified from culture supernatant of a CHO line; whole entry named; also called human interleukin 6 receptor (purified antigen from hIL6R-CHO supernatant)
T1 sequence: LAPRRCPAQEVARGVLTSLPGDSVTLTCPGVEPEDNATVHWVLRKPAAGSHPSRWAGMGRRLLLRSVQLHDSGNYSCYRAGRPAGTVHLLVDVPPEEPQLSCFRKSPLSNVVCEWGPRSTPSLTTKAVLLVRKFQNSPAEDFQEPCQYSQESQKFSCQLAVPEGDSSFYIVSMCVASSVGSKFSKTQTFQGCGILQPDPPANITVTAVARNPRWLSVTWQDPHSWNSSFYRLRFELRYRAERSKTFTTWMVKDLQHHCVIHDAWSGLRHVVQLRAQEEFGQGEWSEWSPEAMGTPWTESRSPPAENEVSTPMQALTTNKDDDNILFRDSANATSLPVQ
Kind of test: SPR 37C, mean; ATP 0 uM.
Protocol: (§1) Measurements were performed at a flow rate of 10 μL/min, interaction time of 1 min, dissociation time of 1 min, and single cycle kinetics at 37° C. For the buffer, 20 mM ACES, 150 mM NaCl, 2 mM MgCl₂, and 0.05% Tween20, pH 7.4 containing different concentrations (0, 1, 10, and 100 μM) of ATP was used. The accessory Biacore Evaluation Software of Biacore T200 was used for analysis, and the 1:1 Langmuir binding model was used for the fitting model.

For test [2], the target named is T1, hIL6R. Kind of test: SPR 37C, mean; ATP 10 uM.
Protocol: as §1
The target of test [3] is T1, hIL6R. Briefly: SPR 37C; AMP 10 uM.
Protocol: (§2) Affinity analysis for hIL6R in the presence of each ATP concentration of 0, 1, 10, and 100 μM was performed on Biacore T200 using the antibodies described in Table 63. Measurements were performed at a flow rate of 10 μL/min, interaction time of 1 min, dissociation time of 1 min, and single cycle kinetics at 37° C. For the buffer, 20 mM ACES, 150 mM NaCl, 2 mM MgCl₂, and 0.05% Tween20, pH 7.4 containing different concentrations (0, 1, 10, and 100 μM) of ATP was used. The accessory Biacore Evaluation Software of Biacore T200 was used for analysis, and the 1:1 Langmuir binding model was used for the fitting model.
(§3) Antibodies with a response of 10 RU or less at the time of measurement were considered unanalyzable and are designated as N.D.
Test [4] addresses T1, hIL6R. Kind of test: SPR 37C; AMP 100 uM.
Test [5] deals with T1, hIL6R. Briefly: SPR 37C; ADP 100 uM.
Protocol: as §2, §3
The target of test [6] is T1, hIL6R. Briefly: SPR 37C, mean; ATP 100 uM.
Protocol: as §1
Test [7] has as its target T1, hIL6R. Kind of test: SPR 37C, mean; ATP 1 uM.
Protocol: as §1
The target in test [8] is T1, hIL6R. Kind of test: SPR 37C; ADP 10 uM.
Protocol: as §2, §3
Test [9] has as its target T1, hIL6R. Briefly: SPR 37C, mean; ATP 100 uM; ATP 100 uM; mean.
Protocol: as §1
Test [10] concerns the target T1, hIL6R. Kind of test: SPR 37C; ADP 10 uM; ADP 10 uM.
Protocol: as §2, §3
In test [11] the target is T1, hIL6R. Kind of test: SPR 37C; ADP 100 uM; ADP 100 uM.
Protocol: as §2, §3
Test [12] deals with T1, hIL6R. Briefly: SPR 37C, mean; ATP 10 uM; ATP 10 uM; mean.
Protocol: as §1
For test [13], the target named is T1, hIL6R. Kind of test: SPR 37C, mean; ATP 1 uM; ATP 1 uM; mean.
Protocol: as §1
Another test addresses T2, hCD137.2.4-F.G1d (human).
T2 construct: Portion of the human CD137 extracellular region linked to an antibody constant region
Kind of test: ELISA; 500 uM kynurenine, Ab 10 ug/mL.

The target of another test is T3, hCD137.2.3-F.G1d (human).
T3 construct: Portion of the human CD137 extracellular region linked to an antibody constant region
Briefly: ELISA; 500 uM kynurenine, Ab 10 ug/mL.

Another test concerns the target T4, hCD137.3.4-F.G1d (human).
T4 construct: Portion of the human CD137 extracellular region linked to an antibody constant region
Briefly: ELISA; 500 uM kynurenine, Ab 10 ug/mL. A general note: In an ELISA, binding on a coated surface is turned into a signal by an enzyme label.

In test [14] the target is T5, Biotinylated Fc-fused monkey CD137 (monkey, biotin on the AviTag).
T5 construct: Monkey CD137 extracellular region, antibody constant region and Avitag; whole entry named; also called cyCD137-Fc-BAP
Briefly: ELISA; 500 uM kynurenine, Ab 10 ug/mL.
Protocol: (§4) Whether the obtained antibodies bind to antigens having a partial sequence of CD137 was assessed by ELISA. […] After the unbound antigens were removed from the plates by washing each well of the plates with the Wash Buffer, the wells were blocked with 50 μL of Blocking Buffer (BlockAce-containing TBS) for one hour or more. To wells from which the Blocking Buffer was removed, each well was supplemented with 10 μL of the purified antibodies prepared at 10 μg/mL in TBS with a final concentration of 500 μM L-kynurenine or TBS with a final concentration of 500 μM kynurenine, and it was left at rest for one hour. AP-conjugated anti-human Kappa antibodies (BIOSOURCE) diluted in TBS with a final concentration of 500 μM kynurenine were added to each well after washing with the Wash Buffer containing a final concentration of 500 μM kynurenine (TBS with 0.1% Tween20). After one hour of incubation, the BluePhos phosphate substrate (KPL) was added after washing with Wash Buffer containing 500 μM kynurenine. Color development of the solution in each well was measured by absorbance at 620 nm after the color development reaction of the solution in each well was stopped by adding the BluePhos Stop Solution. The ratio of absorbance by setting the value of the well with an antibody concentration of 0 μg/mL to 1 is shown.

T4 sequence (chain, as listed by the source limits assumed): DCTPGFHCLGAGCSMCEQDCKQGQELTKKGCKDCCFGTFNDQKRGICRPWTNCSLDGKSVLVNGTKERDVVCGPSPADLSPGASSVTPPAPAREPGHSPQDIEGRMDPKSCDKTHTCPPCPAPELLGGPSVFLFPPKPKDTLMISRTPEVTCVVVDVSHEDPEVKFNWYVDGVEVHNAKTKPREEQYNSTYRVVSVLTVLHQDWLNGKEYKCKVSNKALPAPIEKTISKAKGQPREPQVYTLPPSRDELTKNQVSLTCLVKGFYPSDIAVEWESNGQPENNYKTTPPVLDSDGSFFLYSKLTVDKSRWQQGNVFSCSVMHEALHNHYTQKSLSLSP
T5 sequence (chain, as listed by the source limits assumed): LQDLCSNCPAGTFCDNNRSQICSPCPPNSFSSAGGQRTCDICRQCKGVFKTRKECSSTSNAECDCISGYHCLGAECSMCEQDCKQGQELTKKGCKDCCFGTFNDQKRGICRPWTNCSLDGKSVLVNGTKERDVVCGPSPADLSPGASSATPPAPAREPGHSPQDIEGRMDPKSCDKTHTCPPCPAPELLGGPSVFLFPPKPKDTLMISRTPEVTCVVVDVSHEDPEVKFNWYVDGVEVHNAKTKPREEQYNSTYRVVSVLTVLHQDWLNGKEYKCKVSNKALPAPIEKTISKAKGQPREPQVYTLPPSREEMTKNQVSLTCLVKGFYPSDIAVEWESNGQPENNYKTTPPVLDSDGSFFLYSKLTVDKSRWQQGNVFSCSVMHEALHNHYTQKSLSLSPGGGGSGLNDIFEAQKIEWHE
T3 sequence (chain, as listed by the source limits assumed): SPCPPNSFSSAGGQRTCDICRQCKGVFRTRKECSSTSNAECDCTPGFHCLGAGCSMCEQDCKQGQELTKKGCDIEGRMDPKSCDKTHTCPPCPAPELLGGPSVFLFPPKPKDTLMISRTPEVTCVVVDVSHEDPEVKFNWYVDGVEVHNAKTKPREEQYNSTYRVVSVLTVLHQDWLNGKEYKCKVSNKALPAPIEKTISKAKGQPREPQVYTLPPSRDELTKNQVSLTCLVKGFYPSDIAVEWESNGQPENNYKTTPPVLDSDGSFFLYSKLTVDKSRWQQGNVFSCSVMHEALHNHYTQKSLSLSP
T2 sequence (chain, as listed by the source limits assumed): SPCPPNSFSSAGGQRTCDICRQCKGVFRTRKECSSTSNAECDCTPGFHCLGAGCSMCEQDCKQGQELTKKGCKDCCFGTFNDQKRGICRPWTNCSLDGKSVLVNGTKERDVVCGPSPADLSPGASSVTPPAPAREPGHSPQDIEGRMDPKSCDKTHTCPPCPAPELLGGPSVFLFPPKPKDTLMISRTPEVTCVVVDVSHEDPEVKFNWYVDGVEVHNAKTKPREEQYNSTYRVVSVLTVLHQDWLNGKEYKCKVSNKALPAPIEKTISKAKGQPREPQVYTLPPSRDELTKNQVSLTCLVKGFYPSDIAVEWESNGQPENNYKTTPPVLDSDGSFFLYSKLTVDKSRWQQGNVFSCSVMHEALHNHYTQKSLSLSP
Protocol for hCD137.2.3-F.G1d: as §4
Protocol for hCD137.2.4-F.G1d: as §4
Protocol for hCD137.3.4-F.G1d: as §4

B1: MRAH-G4T1/MRAL-k0 (antibody, human IgG4 S228P, kappa, V domains shown)
VH: QVQLQESGPGLVRPSQTLSLTCTVSGYSITSDHAWSWVRQPPGRGLEWIGYISYSGITTYNPSLKSRVTMLRDTSKNQFSLRLSSVTAADTAVYYCARSLARTTAMDYWGQGSLVTVSS
VL: DIQMTQSPSSLSASVGDRVTITCRASQDISSYLNWYQQKPGKAPKLLIYYTSRLHSGVPSRFSGSGSGTDFTFTISSLQPEDIATYYCQQGNTLPYTFGQGTKVEIKR
notes: Non-switch control antibody
Turning to B1, the Kd is 17 nM with hIL6R [1]; 17.9 nM with hIL6R [2]; 5.33 nM with hIL6R [3]; 5.46 nM with hIL6R [4]; 5.96 nM with hIL6R [5]; 18 nM with hIL6R [6]. The Kd was 18.8 nM in the test with hIL6R [7] and 5.64 nM with hIL6R [8].

B2: H0041-G4T1/L1088-lam1 (antibody, human IgG4 S228P, lambda, V domains shown)
VH: EVQLVESGGDLVKPGGGLRLSCAASGFTFSSYTMNWVRQAPGKGLEWVSSISSQSYHIYYADSVKGRFTISRDNAKNSLYLQMNSLRAEDTAVYYCARYGKLYSLNWVFDYWGQGTLVTVSS
VL: QSALTQPPSASGSPGQTVTISCTGTSTDVGDYAYVSWYQQHPGKAPKLMIYYVSKKPDGVPDRFSGSKSGNTASLTVSGLQAEDEADYFCSLRSPGPYPLFGGGTKLTVLG
For the molecule B2, the Kd with hIL6R [9] came to 48.3 nM; in the test with hIL6R [4], 1810 nM; with hIL6R [10] it was 10300 nM; with hIL6R [11], 296 nM; with hIL6R [12] it was 320 nM; in the test with hIL6R [13], 2380 nM.

B3: dBBK054-P253 (antibody, human IgG1, kappa, V domains shown)
VH: QVQLVQSGAEVKKPGSSVKVSCKASGGWFSYYMISWVRQAPGQGLEWMGVIVPINGAAQYAQKFQGRVTITADESTSTAYMELSSLRSEDTAVYYCARDRPVWRTPRGAFDIWGQGTLVTVSS
VL: DIVMTQSPLSLPVTPGEPASISCRSSQSLVDSNMNTFLSWYLQKPGQSPQLLIYEIQHRFYGVPDRFSGSGSGTDFTLKISRVEAEDVGVYYCMQAMGFPRTFGQGTKVEIKR
On to B3, for which the absorbance ratio with hCD137.2.4-F.G1d was 1.3; in the test with hCD137.2.3-F.G1d, 1.1; with hCD137.3.4-F.G1d, 1.3; in test [14], 1.1.

In general, Kd refers to the equilibrium constant for the complex coming apart.

These data come from patent US20210324099A1 (Chugai, published 2021).
